T1: human CD19 (human, UniProt P15391 20-556)
T1 construct: also called B-cell surface antigen B4; B-cell antigen CD19
T1 sequence: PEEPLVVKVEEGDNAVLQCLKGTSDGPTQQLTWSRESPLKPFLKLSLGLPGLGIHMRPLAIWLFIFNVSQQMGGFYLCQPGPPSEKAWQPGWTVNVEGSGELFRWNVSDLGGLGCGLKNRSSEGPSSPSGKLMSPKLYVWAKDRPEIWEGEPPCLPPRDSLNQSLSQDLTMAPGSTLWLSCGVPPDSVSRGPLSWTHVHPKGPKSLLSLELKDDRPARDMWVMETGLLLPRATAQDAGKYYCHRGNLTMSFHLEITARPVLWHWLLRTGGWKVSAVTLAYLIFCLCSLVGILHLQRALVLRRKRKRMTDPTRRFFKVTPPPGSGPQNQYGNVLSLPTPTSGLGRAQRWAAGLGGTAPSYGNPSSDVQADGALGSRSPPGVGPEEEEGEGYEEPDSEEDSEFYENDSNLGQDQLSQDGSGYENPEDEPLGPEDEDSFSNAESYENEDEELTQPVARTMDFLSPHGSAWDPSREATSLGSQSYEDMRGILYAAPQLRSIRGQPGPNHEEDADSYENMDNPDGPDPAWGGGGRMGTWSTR


molecular target: T1, human CD19; assay: binding affinity relative to the parent H1L1 mAb (Example 5); assay and format not named on the sheet

Row | Fold change binding [fold] | Binder
1 | 4.73 | H1.203 / L1.155 (antibody, V domains shown, vs H1L1 (Kabat): VH D55S/K58E/S100cT; VL L27cQ/S27eV/A55N/F96I; also called 4G7 H1.203_L1.155) VH: EVQLVESGGGLVKPGGSLKLSCAASGYTFTSYVMHWVRQAPGKGLEWIGYINPYNSGTEYNEKFQGRVTISSDKSISTAYMELSSLRSEDTAMYYCARGTYYYGTRVFDYWGQGTLVTVSS VL: DIVMTQSPATLSLSPGERATLSCRSSKSLQNVNGNTYLYWFQQKPGQSPQLLIYRMSNLNSGVPDRFSGSGSGTEFTLTISSLEPEDFAVYYCMQHLEYPITFGAGTKLEIK
2 | 3.46 | H1.204 / L1.160 (antibody, V domains shown, vs H1L1 (Kabat): VH D55E/K58E/S100cT; VL L27cQ/S27eV/G29A/A55N/F96I; also called 4G7 H1.204_L1.160) VH: EVQLVESGGGLVKPGGSLKLSCAASGYTFTSYVMHWVRQAPGKGLEWIGYINPYNEGTEYNEKFQGRVTISSDKSISTAYMELSSLRSEDTAMYYCARGTYYYGTRVFDYWGQGTLVTVSS VL: DIVMTQSPATLSLSPGERATLSCRSSKSLQNVNANTYLYWFQQKPGQSPQLLIYRMSNLNSGVPDRFSGSGSGTEFTLTISSLEPEDFAVYYCMQHLEYPITFGAGTKLEIK
3 | 2.92 | H1.203 / L1.161 (antibody, V domains shown, vs H1L1 (Kabat): VH D55S/K58E/S100cT; VL L27cQ/S27eV/G29S/A55N/F96I; also called 4G7 H1.203_L1.161) VH: EVQLVESGGGLVKPGGSLKLSCAASGYTFTSYVMHWVRQAPGKGLEWIGYINPYNSGTEYNEKFQGRVTISSDKSISTAYMELSSLRSEDTAMYYCARGTYYYGTRVFDYWGQGTLVTVSS VL: DIVMTQSPATLSLSPGERATLSCRSSKSLQNVNSNTYLYWFQQKPGQSPQLLIYRMSNLNSGVPDRFSGSGSGTEFTLTISSLEPEDFAVYYCMQHLEYPITFGAGTKLEIK
4 | 1.76 | H1.203 / L1.160 (antibody, V domains shown, vs H1L1 (Kabat): VH D55S/K58E/S100cT; VL L27cQ/S27eV/G29A/A55N/F96I; also called 4G7 H1.203_L1.160) VH: EVQLVESGGGLVKPGGSLKLSCAASGYTFTSYVMHWVRQAPGKGLEWIGYINPYNSGTEYNEKFQGRVTISSDKSISTAYMELSSLRSEDTAMYYCARGTYYYGTRVFDYWGQGTLVTVSS VL: DIVMTQSPATLSLSPGERATLSCRSSKSLQNVNANTYLYWFQQKPGQSPQLLIYRMSNLNSGVPDRFSGSGSGTEFTLTISSLEPEDFAVYYCMQHLEYPITFGAGTKLEIK

molecular target: T1, human CD19; assay: as above; remark: another data set of the same source

Row | Fold change binding [fold] | Binder
5 | 1.85 | H1 / L1.3 (antibody, V domains shown, vs H1L1 (Kabat): VL S52Q; also called 4G7 H1_L1.3) VH: EVQLVESGGGLVKPGGSLKLSCAASGYTFTSYVMHWVRQAPGKGLEWIGYINPYNDGTKYNEKFQGRVTISSDKSISTAYMELSSLRSEDTAMYYCARGTYYYGSRVFDYWGQGTLVTVSS VL: DIVMTQSPATLSLSPGERATLSCRSSKSLLNSNGNTYLYWFQQKPGQSPQLLIYRMQNLASGVPDRFSGSGSGTEFTLTISSLEPEDFAVYYCMQHLEYPFTFGAGTKLEIK
6 | 1.75 | H1 / L1.46 (antibody, V domains shown, vs H1L1 (Kabat): VL N53H; also called 4G7 H1_L1.46) VH: EVQLVESGGGLVKPGGSLKLSCAASGYTFTSYVMHWVRQAPGKGLEWIGYINPYNDGTKYNEKFQGRVTISSDKSISTAYMELSSLRSEDTAMYYCARGTYYYGSRVFDYWGQGTLVTVSS VL: DIVMTQSPATLSLSPGERATLSCRSSKSLLNSNGNTYLYWFQQKPGQSPQLLIYRMSHLASGVPDRFSGSGSGTEFTLTISSLEPEDFAVYYCMQHLEYPFTFGAGTKLEIK
7 | 1.73 | H1 / L1.67 (antibody, V domains shown, vs H1L1 (Kabat): VL F96V; also called 4G7 H1_L1.67) VH: EVQLVESGGGLVKPGGSLKLSCAASGYTFTSYVMHWVRQAPGKGLEWIGYINPYNDGTKYNEKFQGRVTISSDKSISTAYMELSSLRSEDTAMYYCARGTYYYGSRVFDYWGQGTLVTVSS VL: DIVMTQSPATLSLSPGERATLSCRSSKSLLNSNGNTYLYWFQQKPGQSPQLLIYRMSNLASGVPDRFSGSGSGTEFTLTISSLEPEDFAVYYCMQHLEYPVTFGAGTKLEIK
8 | 1.73 | H1 / L1.26 (antibody, V domains shown, vs H1L1 (Kabat): VL L27cQ; also called 4G7 H1_L1.26) VH: EVQLVESGGGLVKPGGSLKLSCAASGYTFTSYVMHWVRQAPGKGLEWIGYINPYNDGTKYNEKFQGRVTISSDKSISTAYMELSSLRSEDTAMYYCARGTYYYGSRVFDYWGQGTLVTVSS VL: DIVMTQSPATLSLSPGERATLSCRSSKSLQNSNGNTYLYWFQQKPGQSPQLLIYRMSNLASGVPDRFSGSGSGTEFTLTISSLEPEDFAVYYCMQHLEYPFTFGAGTKLEIK
9 | 2.12 | H1 / L1.68 (antibody, V domains shown, vs H1L1 (Kabat): VL F96N; also called 4G7 H1_L1.68) VH: EVQLVESGGGLVKPGGSLKLSCAASGYTFTSYVMHWVRQAPGKGLEWIGYINPYNDGTKYNEKFQGRVTISSDKSISTAYMELSSLRSEDTAMYYCARGTYYYGSRVFDYWGQGTLVTVSS VL: DIVMTQSPATLSLSPGERATLSCRSSKSLLNSNGNTYLYWFQQKPGQSPQLLIYRMSNLASGVPDRFSGSGSGTEFTLTISSLEPEDFAVYYCMQHLEYPNTFGAGTKLEIK
10 | 1.8 | H1 / L1.64 (antibody, V domains shown, vs H1L1 (Kabat): VL F96I; also called 4G7 H1_L1.64) VH: EVQLVESGGGLVKPGGSLKLSCAASGYTFTSYVMHWVRQAPGKGLEWIGYINPYNDGTKYNEKFQGRVTISSDKSISTAYMELSSLRSEDTAMYYCARGTYYYGSRVFDYWGQGTLVTVSS VL: DIVMTQSPATLSLSPGERATLSCRSSKSLLNSNGNTYLYWFQQKPGQSPQLLIYRMSNLASGVPDRFSGSGSGTEFTLTISSLEPEDFAVYYCMQHLEYPITFGAGTKLEIK
11 | 1.62 | H1 / L1.80 (antibody, V domains shown, vs H1L1 (Kabat): VL Y34F; also called 4G7 H1_L1.80) VH: EVQLVESGGGLVKPGGSLKLSCAASGYTFTSYVMHWVRQAPGKGLEWIGYINPYNDGTKYNEKFQGRVTISSDKSISTAYMELSSLRSEDTAMYYCARGTYYYGSRVFDYWGQGTLVTVSS VL: DIVMTQSPATLSLSPGERATLSCRSSKSLLNSNGNTYLFWFQQKPGQSPQLLIYRMSNLASGVPDRFSGSGSGTEFTLTISSLEPEDFAVYYCMQHLEYPFTFGAGTKLEIK
12 | 2.61 | H1 / L1.32 (antibody, V domains shown, vs H1L1 (Kabat): VL S27eV; also called 4G7 H1_L1.32) VH: EVQLVESGGGLVKPGGSLKLSCAASGYTFTSYVMHWVRQAPGKGLEWIGYINPYNDGTKYNEKFQGRVTISSDKSISTAYMELSSLRSEDTAMYYCARGTYYYGSRVFDYWGQGTLVTVSS VL: DIVMTQSPATLSLSPGERATLSCRSSKSLLNVNGNTYLYWFQQKPGQSPQLLIYRMSNLASGVPDRFSGSGSGTEFTLTISSLEPEDFAVYYCMQHLEYPFTFGAGTKLEIK
13 | 1.54 | H1 / L1.92 (antibody, V domains shown, vs H1L1 (Kabat): VL A55L; also called 4G7 H1_L1.92) VH: EVQLVESGGGLVKPGGSLKLSCAASGYTFTSYVMHWVRQAPGKGLEWIGYINPYNDGTKYNEKFQGRVTISSDKSISTAYMELSSLRSEDTAMYYCARGTYYYGSRVFDYWGQGTLVTVSS VL: DIVMTQSPATLSLSPGERATLSCRSSKSLLNSNGNTYLYWFQQKPGQSPQLLIYRMSNLLSGVPDRFSGSGSGTEFTLTISSLEPEDFAVYYCMQHLEYPFTFGAGTKLEIK
14 | 2.18 | H1 / L1.8 (antibody, V domains shown, vs H1L1 (Kabat): VL S52K; also called 4G7 H1_L1.8) VH: EVQLVESGGGLVKPGGSLKLSCAASGYTFTSYVMHWVRQAPGKGLEWIGYINPYNDGTKYNEKFQGRVTISSDKSISTAYMELSSLRSEDTAMYYCARGTYYYGSRVFDYWGQGTLVTVSS VL: DIVMTQSPATLSLSPGERATLSCRSSKSLLNSNGNTYLYWFQQKPGQSPQLLIYRMKNLASGVPDRFSGSGSGTEFTLTISSLEPEDFAVYYCMQHLEYPFTFGAGTKLEIK
15 | 1.84 | H1 / L1.9 (antibody, V domains shown, vs H1L1 (Kabat): VL S52L; also called 4G7 H1_L1.9) VH: EVQLVESGGGLVKPGGSLKLSCAASGYTFTSYVMHWVRQAPGKGLEWIGYINPYNDGTKYNEKFQGRVTISSDKSISTAYMELSSLRSEDTAMYYCARGTYYYGSRVFDYWGQGTLVTVSS VL: DIVMTQSPATLSLSPGERATLSCRSSKSLLNSNGNTYLYWFQQKPGQSPQLLIYRMLNLASGVPDRFSGSGSGTEFTLTISSLEPEDFAVYYCMQHLEYPFTFGAGTKLEIK
16 | 1.58 | H1 / L1.55 (antibody, V domains shown, vs H1L1 (Kabat): VL N53Y; also called 4G7 H1_L1.55) VH: EVQLVESGGGLVKPGGSLKLSCAASGYTFTSYVMHWVRQAPGKGLEWIGYINPYNDGTKYNEKFQGRVTISSDKSISTAYMELSSLRSEDTAMYYCARGTYYYGSRVFDYWGQGTLVTVSS VL: DIVMTQSPATLSLSPGERATLSCRSSKSLLNSNGNTYLYWFQQKPGQSPQLLIYRMSYLASGVPDRFSGSGSGTEFTLTISSLEPEDFAVYYCMQHLEYPFTFGAGTKLEIK
17 | 1.58 | H1 / L1.96 (antibody, V domains shown, vs H1L1 (Kabat): VL A55N; also called 4G7 H1_L1.96) VH: EVQLVESGGGLVKPGGSLKLSCAASGYTFTSYVMHWVRQAPGKGLEWIGYINPYNDGTKYNEKFQGRVTISSDKSISTAYMELSSLRSEDTAMYYCARGTYYYGSRVFDYWGQGTLVTVSS VL: DIVMTQSPATLSLSPGERATLSCRSSKSLLNSNGNTYLYWFQQKPGQSPQLLIYRMSNLNSGVPDRFSGSGSGTEFTLTISSLEPEDFAVYYCMQHLEYPFTFGAGTKLEIK
18 | 1.57 | H1 / L1.17 (antibody, V domains shown, vs H1L1 (Kabat): VL E93T; also called 4G7 H1_L1.17) VH: EVQLVESGGGLVKPGGSLKLSCAASGYTFTSYVMHWVRQAPGKGLEWIGYINPYNDGTKYNEKFQGRVTISSDKSISTAYMELSSLRSEDTAMYYCARGTYYYGSRVFDYWGQGTLVTVSS VL: DIVMTQSPATLSLSPGERATLSCRSSKSLLNSNGNTYLYWFQQKPGQSPQLLIYRMSNLASGVPDRFSGSGSGTEFTLTISSLEPEDFAVYYCMQHLTYPFTFGAGTKLEIK
19 | 1.5 | H1 / L1.54 (antibody, V domains shown, vs H1L1 (Kabat): VL N53G; also called 4G7 H1_L1.54) VH: EVQLVESGGGLVKPGGSLKLSCAASGYTFTSYVMHWVRQAPGKGLEWIGYINPYNDGTKYNEKFQGRVTISSDKSISTAYMELSSLRSEDTAMYYCARGTYYYGSRVFDYWGQGTLVTVSS VL: DIVMTQSPATLSLSPGERATLSCRSSKSLLNSNGNTYLYWFQQKPGQSPQLLIYRMSGLASGVPDRFSGSGSGTEFTLTISSLEPEDFAVYYCMQHLEYPFTFGAGTKLEIK

— US20100272723A1 (Xencor, published 2010)
